Reference: patent US9012166B2, “Method for assaying histone methylation enzyme activity” (Kyushu Institute of Technology, priority 2010, dated 2015)
*: point of attachment. AMC = Cc1cc(=O)oc2cc(N*)ccc12

biological target: T1, G9a (GST-mG9a) (Mus musculus, UniProt Q9Z148); assay: Substrate specificity / methylation of substrate compounds by G9a; type: biochemical; details: Example 4; BocLysMCA 0.009 mM to 0.09 mM; G9a 0-0.15 μg/μL; FIG. 9
T1 sequence (Q9Z148 1-1263): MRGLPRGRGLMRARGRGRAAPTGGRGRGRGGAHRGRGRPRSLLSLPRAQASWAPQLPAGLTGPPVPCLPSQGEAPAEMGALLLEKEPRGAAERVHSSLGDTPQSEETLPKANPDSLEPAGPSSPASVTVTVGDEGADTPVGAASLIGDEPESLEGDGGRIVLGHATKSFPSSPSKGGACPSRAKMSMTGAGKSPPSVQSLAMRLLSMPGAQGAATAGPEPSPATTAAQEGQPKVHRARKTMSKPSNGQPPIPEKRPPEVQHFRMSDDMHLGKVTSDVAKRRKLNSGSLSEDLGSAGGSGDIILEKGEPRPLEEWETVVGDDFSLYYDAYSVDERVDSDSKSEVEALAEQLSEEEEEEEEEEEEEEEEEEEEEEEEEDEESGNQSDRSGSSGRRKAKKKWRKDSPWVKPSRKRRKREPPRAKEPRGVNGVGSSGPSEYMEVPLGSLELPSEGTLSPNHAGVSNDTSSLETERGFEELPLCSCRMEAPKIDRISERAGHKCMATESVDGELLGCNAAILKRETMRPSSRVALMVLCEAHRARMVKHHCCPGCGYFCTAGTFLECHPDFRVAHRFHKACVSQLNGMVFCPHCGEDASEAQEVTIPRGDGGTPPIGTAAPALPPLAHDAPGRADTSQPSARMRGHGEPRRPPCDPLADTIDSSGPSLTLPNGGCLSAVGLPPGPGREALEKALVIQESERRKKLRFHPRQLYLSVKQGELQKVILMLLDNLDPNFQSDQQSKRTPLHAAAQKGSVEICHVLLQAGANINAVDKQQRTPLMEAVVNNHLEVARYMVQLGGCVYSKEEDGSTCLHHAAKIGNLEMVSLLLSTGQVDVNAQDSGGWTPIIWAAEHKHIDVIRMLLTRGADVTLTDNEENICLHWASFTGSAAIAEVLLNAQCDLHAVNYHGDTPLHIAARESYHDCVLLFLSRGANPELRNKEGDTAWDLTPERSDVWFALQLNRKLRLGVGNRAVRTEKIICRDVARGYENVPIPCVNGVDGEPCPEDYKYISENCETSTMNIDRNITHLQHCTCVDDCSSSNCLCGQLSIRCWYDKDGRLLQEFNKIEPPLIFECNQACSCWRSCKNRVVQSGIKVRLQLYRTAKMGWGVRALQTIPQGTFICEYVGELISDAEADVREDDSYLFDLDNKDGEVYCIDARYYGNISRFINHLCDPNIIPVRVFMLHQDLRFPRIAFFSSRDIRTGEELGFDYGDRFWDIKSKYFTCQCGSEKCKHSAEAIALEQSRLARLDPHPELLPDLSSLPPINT
Method: Distilled water was added to 10 μL of 2×HMT buffer (100 mM Tris-HCl (pH 8.5), 20 mM MgCl2, 40 mM KCl, 20 mM 2-mercaptoethanol, 500 mM sucrose), 2 μL of a BSA solution (30 μg/mL), and a predetermined concentration (final concentration: 0, 0.015, 0.05, or 0.15 μg/μL) of a histone methyltransferase (G9a) solution to adjust the total volume to 16 μL. Thereafter, the resultant solution was incubated at room temperature for 1 hour. Then, 2 μL of S-adenosylmethionine (SAM) (10 mM) and 2 μL of BocLysMCA (final concentration: 0.009 mM, 0.03 mM, or 0.09 mM) were added thereto, which was mixed and then incubated at 37° C. for 1 hour. Subsequently, 30 μL of a trypsin solution (20 mg/mL) was added thereto, followed by incubation at 37° C. for 15 minutes. The fluorescence intensity of the solution was measured at an excitation wavelength (λex) of 390 nm and a fluorescence wavelength (λem) of 460 nm.
When G9a was adopted as a histone methyltransferase, the following method was used. 10 μL of 2×HMT buffer (100 mM Tris-HCl (pH 8.5), 20 mM MgCl2, 40 mM KCl, 20 mM 2-mercaptoethanol, 500 mM sucrose), 0.4 μL of a BSA solution (150 μg/mL), 4.5 μL of GST-mG9a (0, 0.022 to 0.66 μg/μL), and 1.1 μL of distilled water were mixed and then incubated at room temperature for 1 hour. Then, 2 μL of SAM (10 mM) and 2 μL of a peptidyl MCA solution (0.6 mM) were added thereto, which was then incubated at 37° C. for 1 hour. Thereafter, 30 μL of a trypsin solution (20 mg/mL) was added thereto, followed by incubation at 37° C. for 15 minutes. Then, the fluorescence intensity of the solution was measured at an excitation wavelength (λex) of 390 nm and a fluorescence wavelength (λem) of 460 nm. The final concentration of GST-mG9a during the measurement of fluorescence intensity was 0, 0.005, 0.015, 0.05, or 0.15 μg/μL. The results of the assay for measuring histone methyltransferase activity are shown in the left panel of FIG. 14.
When G9a was adopted as a histone methyltransferase, the following method was used. 10 μL of 2×HMT buffer (100 mM Tris-HCl (pH 8.5), 20 mM MgCl2, 40 mM KCl, 20 mM 2-mercaptoethanol, 500 mM sucrose), 0.4 μL of a BSA solution (150 μg/mL), 3.6 μL of GST-mG9a (0, 0.028, 0.083, 0.28, 0.83 μg/μL), and 4 μL of distilled water were mixed and then incubated at room temperature for 1 hour. Then, 1 μL of SAM (20 mM) and 1 μL of a peptidyl MCA solution (1.2 mM) were added thereto, which was then incubated at 37° C. for 1 hour. Thereafter, 30 μL of a trypsin solution (20 mg/mL) was added thereto, followed by incubation at 37° C. for 15 minutes. Then, the fluorescence intensity of the solution was measured at an excitation wavelength (λex) of 390 nm and a fluorescence wavelength (λem) of 460 nm. The final concentration of GST-mG9a during the measurement of fluorescence intensity was 0, 0.005, 0.015, 0.05, or 0.15 μg/μL. The results of the assay for measuring histone methyltransferase activity are shown in the left panel of FIG. 16.
When G9a was adopted as a histone methyltransferase, the following method was used. 10 μL of 2×HMT buffer (100 mM Tris-HCl (pH 8.5), 20 mM MgCl2, 40 mM KCl, 20 mM 2-mercaptoethanol, 500 mM sucrose), 0.4 μL of a BSA solution (150 μg/mL), 4 μL of GST-mG9a (0, 0.025 to 0.75 μg/μL), and 3.6 μL of distilled water were mixed and then incubated at room temperature for 1 hour. Then, 1 μL of SAM (final concentration: 1 mM) and 1 μL, of a peptidyl MCA solution (1.2 mM) were added thereto, which was then incubated at 37° C. for 1 hour. Thereafter, 30 μL of a trypsin solution (20 mg/mL) was added thereto, followed by incubation at 37° C. for 15 minutes. Then, the fluorescence intensity of the solution was measured at an excitation wavelength (λex) of 330 nm and a fluorescence wavelength (λem) of 380 nm or at an excitation wavelength (λex) of 390 nm and a fluorescence wavelength (λem) of 460 nm. The final concentration of GST-mG9a during the measurement of fluorescence intensity was 0, 0.005, 0.015, 0.05, or 0.15 μg/μL.

| Molecule | fluorescence intensity of AMC after G9a reaction and trypsin |
| --- | --- |
| Cc1cc(=O)oc2cc(NC(=O)C(CCCCN)NC(=O)OC(C)(C)C)ccc12 (stereo not shown) [BocLysMCA, Boc-K-MCA] | decreased in a manner dependent on the concentration of the histone methyltransferase G9a |

same assay, conditions: Example 6; GST-mG9a 0-0.15 μg/μL; left panel of FIG. 14

| Molecule | methylation of peptidyl MCA by G9a |
| --- | --- |
| Ac-ARK-MCA (Ac-Ala-Arg-Lys-{AMC}; SMILES CC(=O)N[C@@H](C)C(=O)N[C@@H](CCCNC(=N)N)C(=O)N[C@@H](CCCCN)C(=O)Nc1ccc2c(C)cc(=O)oc2c1; listed as Homo sapiens) [Ac-histone H3 (7-9/25-27)-MCA, acetyl-ARK (human histone H3 7-9 or 25-27)-MCA substrate] | methylation often occurred |
| Ac-LKSK-MCA (Ac-LKSK-{AMC}; SMILES CC(=O)N[C@@H](CC(C)C)C(=O)N[C@@H](CCCCN)C(=O)N[C@@H](CO)C(=O)N[C@@H](CCCCN)C(=O)Nc1ccc2c(C)cc(=O)oc2c1; listed as Homo sapiens) [Ac-p53 (369-372)-MCA] | little methylation occurred |
| Ac-QTARK-MCA [Ac-histone H3 (5-9)-MCA] | methylation often occurred |
| Ac-KAARK-MCA (Ac-KAARK-{AMC}; SMILES CC(=O)N[C@@H](CCCCN)C(=O)N[C@@H](C)C(=O)N[C@@H](C)C(=O)N[C@@H](CCCNC(=N)N)C(=O)N[C@@H](CCCCN)C(=O)Nc1ccc2c(C)cc(=O)oc2c1; listed as Homo sapiens) [Ac-histone H3 (23-27)-MCA] | methylation often occurred |
| Ac-QLATKAARK-MCA (Ac-QLATKAARK-{AMC}; SMILES CC(=O)N[C@@H](CCC(N)=O)C(=O)N[C@@H](CC(C)C)C(=O)N[C@@H](C)C(=O)N[C@H](C(=O)N[C@@H](CCCCN)C(=O)N[C@@H](C)C(=O)N[C@@H](C)C(=O)N[C@@H](CCCNC(=N)N)C(=O)N[C@@H](CCCCN)C(=O)Nc1ccc2c(C)cc(=O)oc2c1)[C@@H](C)O; listed as Homo sapiens) [Ac-histone H3 (19-27)-MCA] | methylation often occurred |
| Ac-ARTKQTARK-MCA [Ac-histone H3 (1-9)-MCA] | methylation often occurred |
| Ac-ARTK-MCA (Ac-ARTK-{AMC}; SMILES CC(=O)N[C@@H](C)C(=O)N[C@@H](CCCNC(=N)N)C(=O)N[C@H](C(=O)N[C@@H](CCCCN)C(=O)Nc1ccc2c(C)cc(=O)oc2c1)[C@@H](C)O; listed as Homo sapiens) [Ac-histone H3 (1-4)-MCA] | little methylation occurred |

same assay, conditions: Example 13; AMC and peptidyl MCA fluorescence; FIGS. 25 and 26

| Molecule | methylation of peptidyl MCA by GST-mG9a |
| --- | --- |
| Ac-KRSK-MCA (Ac-KRSK-{AMC}; SMILES CC(=O)N[C@@H](CCCCN)C(=O)N[C@@H](CCCNC(=N)N)C(=O)N[C@@H](CO)C(=O)N[C@@H](CCCCN)C(=O)Nc1ccc2c(C)cc(=O)oc2c1; listed as Homo sapiens) [Ac-ERα (299-302)-MCA] | does not methylate |
| Ac-ARTKQTARK-MCA [Ac-histone H3 (1-9)-MCA] | methylates |
